Measurements as given in patent CN116262787A (BOAOXIN BIOTECHNOLOGY NANJING CO LTD, dated 2023).

B1: 抗人LAG-3抗体G1A7 (mouse anti-human LAG-3 monoclonal antibody G1A7) (antibody, V domains shown)
VH: EVQLQQSGPVLVKPGASVKMSCKASGYTFTHYYMNWVKQSHGKSLEWIGVINPYNGDTSYKQNFKGKATLTVDKTSSTAYMDLNSLTSEDSAVYYCARDDGYYQWYFDVWGTGTTVTVSS
VL: DIQLTQSPSSLSASLGERVSLTCRASQDIGSRLIWLQQGPDGTIKRLIFATSSLDSGVPKRFSGSRSGSDYSLTISSLESEDFVDYYCLQCASSPPTFGGGTKLEIK
notes: Tested as the mouse monoclonal antibody purified from hybridoma culture; also called 本发明的抗体G1A7
B2: Relatlimab (BRISTOL-MYERS SQUIBB COMPANY, BMS), reference antibody, prepared in-house (antibody, human IgG4 S228P, kappa, V domains shown)
VH: QVQLQQWGAGLLKPSETLSLTCAVYGGSFSDYYWNWIRQPPGKGLEWIGEINHRGSTNSNPSLKSRVTLSLDTSKNQFSLKLRSVTAADTAVYYCAFGYSDYEYNWFDPWGQGTLVTVSS
VL: EIVLTQSPATLSLSPGERATLSCRASQSISSYLAWYQQKPGQAPRLLIYDASNRATGIPARFSGSGSGTDFTLTISSLEPEDFAVYYCQQRSNWPLTFGQGTNLEIKR
notes: also called 参照抗体; 参照抗体Relatlimab

What was measured:
[1] = target: T1, 人LAG-3 on the surface of a stable 293T cell line overexpressing it (human, UniProt P18627 23-525); assay: flow cytometry on 293T cells overexpressing human LAG-3
T1 construct: whole, on cells; also called 表面过表达人LAG-3的293T细胞
T1 sequence (looked up): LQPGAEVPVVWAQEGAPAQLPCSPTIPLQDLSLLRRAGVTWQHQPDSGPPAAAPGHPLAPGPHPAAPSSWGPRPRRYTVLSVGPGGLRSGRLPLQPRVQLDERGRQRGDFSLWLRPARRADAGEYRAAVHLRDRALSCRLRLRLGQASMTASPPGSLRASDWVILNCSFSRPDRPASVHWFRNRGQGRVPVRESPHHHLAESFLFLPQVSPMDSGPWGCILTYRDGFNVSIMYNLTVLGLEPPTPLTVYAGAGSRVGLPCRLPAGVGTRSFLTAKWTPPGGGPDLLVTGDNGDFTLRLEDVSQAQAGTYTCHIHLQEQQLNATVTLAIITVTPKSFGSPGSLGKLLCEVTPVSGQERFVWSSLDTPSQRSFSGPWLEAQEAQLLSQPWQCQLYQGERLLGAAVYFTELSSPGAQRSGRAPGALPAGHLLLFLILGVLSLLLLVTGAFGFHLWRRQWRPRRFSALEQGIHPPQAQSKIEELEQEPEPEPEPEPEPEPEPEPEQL

[2] = target: T2, 小鼠LAG-3-his (in-house, mouse LAG-3 Uniprot #Q61790, Gly24-Leu442) (mouse, UniProt Q61790 24-442); assay: indirect ELISA, coated mouse LAG-3-his
T2 construct: range 24-442; also called 鼠LAG-3蛋白; not shown: his tag
T2 sequence (looked up): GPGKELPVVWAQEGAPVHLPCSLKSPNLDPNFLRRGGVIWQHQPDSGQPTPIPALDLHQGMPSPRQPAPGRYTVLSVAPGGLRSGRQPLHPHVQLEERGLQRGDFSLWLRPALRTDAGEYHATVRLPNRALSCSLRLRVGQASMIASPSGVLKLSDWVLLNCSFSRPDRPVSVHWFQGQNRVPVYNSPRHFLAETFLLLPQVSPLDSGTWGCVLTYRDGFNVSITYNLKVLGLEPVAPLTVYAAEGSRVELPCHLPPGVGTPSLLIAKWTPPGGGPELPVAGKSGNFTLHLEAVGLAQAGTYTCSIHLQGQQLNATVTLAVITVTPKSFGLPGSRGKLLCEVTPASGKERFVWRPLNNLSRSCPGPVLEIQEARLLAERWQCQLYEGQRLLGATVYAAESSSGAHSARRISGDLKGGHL

[3] = target: T3, 生物素标记的人LAG-3蛋白 (LAG-3-Fc-bio, cat#LA3-H82Fb, Acro) (human, UniProt P18627 23-450, biotin label (site not stated)); assay: capture ELISA: antibody captured on GAM-Fab/GAH-Fab, LAG-3-Fc-bio in solution, SA-HRP
T3 construct: Bought protein (Acro LA3-H82Fb); also called 人LAG-3-Fc-bio; not shown: Fc part of the bought fusion
T3 sequence (looked up): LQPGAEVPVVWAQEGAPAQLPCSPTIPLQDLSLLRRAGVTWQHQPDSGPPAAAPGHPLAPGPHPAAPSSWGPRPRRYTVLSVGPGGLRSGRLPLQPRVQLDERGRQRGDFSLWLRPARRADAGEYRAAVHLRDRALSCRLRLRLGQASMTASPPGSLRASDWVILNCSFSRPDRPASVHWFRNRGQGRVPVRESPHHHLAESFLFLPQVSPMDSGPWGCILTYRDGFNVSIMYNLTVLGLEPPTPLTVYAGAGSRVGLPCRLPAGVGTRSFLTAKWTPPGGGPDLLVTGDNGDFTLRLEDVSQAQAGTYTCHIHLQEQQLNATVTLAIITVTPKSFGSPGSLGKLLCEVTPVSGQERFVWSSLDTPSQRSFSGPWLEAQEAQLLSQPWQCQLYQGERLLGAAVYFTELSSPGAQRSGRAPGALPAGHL

Row | Binder | binding result [1] | binding result [2] | binding result [3]
1 | B1 | binds | no binding (tested: from 66.7nM, serial 5-fold dilution) | binds
2 | B2 | – | no binding (tested: from 66.7nM, serial 5-fold dilution) | –
